This test deals with T1, full-length (FL) RasGAP purified from E. coli (UniProt P20936 1-1047).
T1 construct: p120RasGAP (RASA1), full length; also called purified FL RasGAP; source: E. coli, purified
T1 sequence (looked up): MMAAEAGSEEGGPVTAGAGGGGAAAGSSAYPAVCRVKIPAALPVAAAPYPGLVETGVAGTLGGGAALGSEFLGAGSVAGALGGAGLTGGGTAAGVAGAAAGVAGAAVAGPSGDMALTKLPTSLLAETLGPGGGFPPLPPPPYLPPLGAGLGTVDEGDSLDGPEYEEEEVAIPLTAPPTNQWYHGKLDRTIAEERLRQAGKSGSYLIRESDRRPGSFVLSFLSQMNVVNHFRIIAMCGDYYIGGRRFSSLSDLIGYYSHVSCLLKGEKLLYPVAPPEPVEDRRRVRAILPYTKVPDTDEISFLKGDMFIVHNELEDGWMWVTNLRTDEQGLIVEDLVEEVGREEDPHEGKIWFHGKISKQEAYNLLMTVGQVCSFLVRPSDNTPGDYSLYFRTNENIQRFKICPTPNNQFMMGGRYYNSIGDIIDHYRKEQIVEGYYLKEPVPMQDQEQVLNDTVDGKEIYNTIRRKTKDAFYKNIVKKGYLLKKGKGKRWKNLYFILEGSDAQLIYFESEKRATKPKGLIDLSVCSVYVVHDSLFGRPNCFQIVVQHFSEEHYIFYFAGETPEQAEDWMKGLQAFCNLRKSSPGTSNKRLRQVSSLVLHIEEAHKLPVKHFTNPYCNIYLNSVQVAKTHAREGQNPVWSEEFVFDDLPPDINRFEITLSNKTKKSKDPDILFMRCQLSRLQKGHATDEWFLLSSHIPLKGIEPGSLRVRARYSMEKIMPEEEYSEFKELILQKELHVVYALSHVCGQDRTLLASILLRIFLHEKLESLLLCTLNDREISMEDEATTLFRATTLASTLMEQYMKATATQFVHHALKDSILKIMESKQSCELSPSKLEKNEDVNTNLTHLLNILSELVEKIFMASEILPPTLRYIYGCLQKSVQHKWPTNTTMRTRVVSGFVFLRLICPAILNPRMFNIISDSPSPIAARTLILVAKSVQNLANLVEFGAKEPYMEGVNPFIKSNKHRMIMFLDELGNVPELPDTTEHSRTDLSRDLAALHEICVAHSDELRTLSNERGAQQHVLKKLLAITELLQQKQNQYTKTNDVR
The test is described as follows: pull-down; GST-merlin fragments pull down FL RasGAP purified from E. coli; western blot. The conditions noted are these: both partners purified. Background: In western blotting, separated proteins are transferred to a membrane and probed.

B1: GST-merlin aa 1–73 (domain or fragment, UniProt P35240 1-73, looked up)
chain: MAGAIASRMSFSSLKRKQPKTFTVRIVTMDAEMEFNCEMKWKGKDLFDLVCRTLGLRETWFFGLQYTIKDTVA
notes: merlin (NF2), part of the F1 subdomain of the FERM domain, aa 1-73; also called aa 1–73 fragment; part of merlin's F1 subdomain
For B1, the binding result was “binds”.

These data come from article PMC6756068, “The NF2 tumor suppressor merlin interacts with Ras and RasGAP, which may modulate Ras signaling” (Oncogene, 2019).
